We go through one molecule from patent US20060153833A1 (Genmab, published 2006).

Assay [1] has as its target T1, E2 glycoprotein expressed by recombinant vaccinia virus vHCV1-1488 (HCV-H) (Hepatitis C virus strain H (genotype 1a), UniProt P27958 384-746).
T1 construct: 35S-labelled and immunoprecipitated from cell lysates in pulse-chase experiments
Briefly: pulse-chase immunoprecipitation, reducing SDS-PAGE.

Assay [2] addresses T2, subtype 1b derived E2 (BK strain) expressed by recombinant Sindbis virus Sinrep/HCV-BK1-1207 (Hepatitis C virus strain BK (genotype …, UniProt P26663 384-746)).
T2 construct: Immunoprecipitated from lysates of infected cells; also called genotype 1b antigen
Put plainly: immunoprecipitation from cells infected with Sinrep/HCV-BK1-1207.

T1 sequence (P27958 384-746 limits assumed): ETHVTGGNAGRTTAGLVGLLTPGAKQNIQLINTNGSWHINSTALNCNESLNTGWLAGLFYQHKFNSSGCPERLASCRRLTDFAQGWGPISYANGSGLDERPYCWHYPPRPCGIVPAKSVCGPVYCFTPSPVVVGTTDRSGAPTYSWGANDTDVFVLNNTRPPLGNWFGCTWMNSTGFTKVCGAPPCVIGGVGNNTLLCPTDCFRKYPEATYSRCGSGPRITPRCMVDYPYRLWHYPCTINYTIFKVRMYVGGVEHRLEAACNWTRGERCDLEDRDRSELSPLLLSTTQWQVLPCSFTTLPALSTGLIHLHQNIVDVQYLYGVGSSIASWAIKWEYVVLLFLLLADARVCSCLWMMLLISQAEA
T2 sequence (P26663 384-746 limits assumed): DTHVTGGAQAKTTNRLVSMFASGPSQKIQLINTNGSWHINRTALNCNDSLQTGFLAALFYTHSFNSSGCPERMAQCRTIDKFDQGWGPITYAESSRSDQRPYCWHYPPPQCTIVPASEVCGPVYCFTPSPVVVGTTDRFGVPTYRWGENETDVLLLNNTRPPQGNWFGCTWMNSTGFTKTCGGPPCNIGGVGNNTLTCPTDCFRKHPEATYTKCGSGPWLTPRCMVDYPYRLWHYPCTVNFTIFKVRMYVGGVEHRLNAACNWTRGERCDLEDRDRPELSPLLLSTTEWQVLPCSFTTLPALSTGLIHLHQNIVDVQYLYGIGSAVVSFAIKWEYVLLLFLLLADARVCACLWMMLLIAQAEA

B1: HMAb 503 (antibody, V domains shown)
VH: QVQLQQWGAGLLKPSETLSLTCAVYGGSLSGYFWTWIRQSPGKGLEWIGESNYSGSTRYNPSLKSRVTISVDTSQNQFSLKLSSVTAADTAVYYCARGWAVDGMDVWGQGTTVTVSS
VL: SYELTQPPSVSVSPGQTARITCSGDALPKQYAYWYQQKPGQAPVLVIYKDNERPSGIPERFSGSRSGTTVTLTISGVQAEDEADYYCQSADSSGSSWVFGGGTKLTVL
notes: also called antibody 503; clone 503
B1: the binding result in assay [1] and in assay [2] was “binds” each time.
